Reference: publication PMC10688287, “RNA binding protein AUF1/HNRNPD regulates nuclear export, stability and translation of SNCA transcripts” (Open Biology, 2023)

Biological target: T1, CNOT1 (UniProt A5YKK6 1-2376)
T1 construct: CNOT1, scaffold subunit of the CCR4-NOT deadenylase complex; Endogenous human CNOT1 of the SK-N-SH cells is precipitated by the anti-CNOT1 antibody as well; source: SK-N-SH, transfected (CNOT1 plasmid), in lysate
Test: co-IP; anti-CNOT1 antibody or control IgG, protein A/G magnetic beads; lysates of SK-N-SH cells 48 h after co-transfection with CNOT1 and either empty or AUF1-expressing plasmid; PLB lysis buffer (10 mM HEPES pH 7.0, 100 mM KCl, 5 mM MgCl2, 0.5% NP-40); washes in NT2 buffer with 250 mM NaCl; Western blot
Conditions: partners not purified

T1 sequence (A5YKK6 whole entry): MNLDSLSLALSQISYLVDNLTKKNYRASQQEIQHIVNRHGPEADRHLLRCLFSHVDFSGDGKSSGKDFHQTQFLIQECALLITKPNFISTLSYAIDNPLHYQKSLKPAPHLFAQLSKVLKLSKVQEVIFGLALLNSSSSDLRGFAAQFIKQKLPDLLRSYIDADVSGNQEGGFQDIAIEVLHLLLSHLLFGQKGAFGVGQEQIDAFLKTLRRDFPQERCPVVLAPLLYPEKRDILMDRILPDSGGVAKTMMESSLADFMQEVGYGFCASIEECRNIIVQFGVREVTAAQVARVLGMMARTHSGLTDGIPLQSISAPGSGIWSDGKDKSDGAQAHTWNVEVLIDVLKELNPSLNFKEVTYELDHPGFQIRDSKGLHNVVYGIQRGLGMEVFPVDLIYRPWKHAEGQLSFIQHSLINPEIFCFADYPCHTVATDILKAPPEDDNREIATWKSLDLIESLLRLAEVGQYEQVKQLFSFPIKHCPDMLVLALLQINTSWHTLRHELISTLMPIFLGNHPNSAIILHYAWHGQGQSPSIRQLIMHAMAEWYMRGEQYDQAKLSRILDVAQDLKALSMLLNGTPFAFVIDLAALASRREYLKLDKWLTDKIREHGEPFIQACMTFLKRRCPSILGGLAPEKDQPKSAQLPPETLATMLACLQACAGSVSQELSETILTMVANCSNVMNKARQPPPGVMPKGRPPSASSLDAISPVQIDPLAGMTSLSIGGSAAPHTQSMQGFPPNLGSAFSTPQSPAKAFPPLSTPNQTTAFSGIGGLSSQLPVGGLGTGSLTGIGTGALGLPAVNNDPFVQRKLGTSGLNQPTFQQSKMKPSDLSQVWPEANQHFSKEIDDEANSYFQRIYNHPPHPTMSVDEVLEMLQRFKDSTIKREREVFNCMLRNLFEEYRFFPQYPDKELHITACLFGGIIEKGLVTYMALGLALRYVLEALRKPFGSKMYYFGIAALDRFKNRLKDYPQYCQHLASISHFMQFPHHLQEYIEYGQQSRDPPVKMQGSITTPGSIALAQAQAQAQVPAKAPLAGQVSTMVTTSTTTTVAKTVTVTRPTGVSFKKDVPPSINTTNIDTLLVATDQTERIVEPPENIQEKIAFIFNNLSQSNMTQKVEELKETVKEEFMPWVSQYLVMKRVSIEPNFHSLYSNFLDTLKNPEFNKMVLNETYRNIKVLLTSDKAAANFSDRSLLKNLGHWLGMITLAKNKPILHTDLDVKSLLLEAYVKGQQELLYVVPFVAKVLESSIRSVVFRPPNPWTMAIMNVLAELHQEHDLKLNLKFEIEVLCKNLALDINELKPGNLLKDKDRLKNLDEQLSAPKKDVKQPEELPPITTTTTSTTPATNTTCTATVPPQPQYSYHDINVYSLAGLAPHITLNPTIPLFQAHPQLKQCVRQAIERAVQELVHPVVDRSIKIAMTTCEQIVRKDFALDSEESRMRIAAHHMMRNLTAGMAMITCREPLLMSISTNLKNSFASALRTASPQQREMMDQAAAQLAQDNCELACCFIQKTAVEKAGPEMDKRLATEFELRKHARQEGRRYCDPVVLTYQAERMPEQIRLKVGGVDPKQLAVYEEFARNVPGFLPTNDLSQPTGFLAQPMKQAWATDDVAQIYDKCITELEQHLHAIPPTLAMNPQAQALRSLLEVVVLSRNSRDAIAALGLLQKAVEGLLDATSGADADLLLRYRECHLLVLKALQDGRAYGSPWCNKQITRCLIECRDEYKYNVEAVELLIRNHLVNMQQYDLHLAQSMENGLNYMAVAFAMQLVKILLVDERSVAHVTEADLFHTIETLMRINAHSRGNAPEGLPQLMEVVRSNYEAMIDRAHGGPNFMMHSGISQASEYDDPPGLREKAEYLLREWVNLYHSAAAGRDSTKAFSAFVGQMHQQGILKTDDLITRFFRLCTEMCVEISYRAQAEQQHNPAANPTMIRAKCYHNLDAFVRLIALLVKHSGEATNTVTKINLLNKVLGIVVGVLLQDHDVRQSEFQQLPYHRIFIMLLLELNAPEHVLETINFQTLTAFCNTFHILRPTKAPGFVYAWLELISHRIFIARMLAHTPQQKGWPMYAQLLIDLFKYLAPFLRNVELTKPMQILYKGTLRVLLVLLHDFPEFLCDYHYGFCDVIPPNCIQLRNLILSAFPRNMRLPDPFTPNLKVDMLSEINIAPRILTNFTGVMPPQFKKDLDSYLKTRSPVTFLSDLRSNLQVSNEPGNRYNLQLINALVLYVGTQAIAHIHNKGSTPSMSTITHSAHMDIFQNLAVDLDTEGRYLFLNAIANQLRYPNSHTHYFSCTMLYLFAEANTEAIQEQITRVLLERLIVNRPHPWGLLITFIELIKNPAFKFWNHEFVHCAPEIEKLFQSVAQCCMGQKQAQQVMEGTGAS

B1: AUF1 (heterogeneous nuclear ribonucleoprotein D, HNRNPD), 42 kDa protein (natural protein, human, UniProt Q14103-2 1-336, looked up)
chain: MSEEQFGGDGAAAAATAAVGGSAGEQEGAMVAATQGAAAAAGSGAGTGGGTASGGTEGGSAESEGAKIDASKNEEDEGKMFIGGLSWDTTKKDLKDYFSKFGEVVDCTLKLDPITGRSRGFGFVLFKESESVDKVMDQKEHKLNGKVIDPKRAKAMKTKEPVKKIFVGGLSPDTPEEKIREYFGGFGEVESIELPMDNKTNKRRGFCFITFKEEEPVKKIMEKKYHNVGLSKCEIKVAMSKEQYQQQQQWGSRGGFAGRARGRGGGPSQNWNQGYSNYWNQGYGNYGYNSQGYGGYGGYDYTGYNNYYGYGDYSNQQSGYGKVSRRGGHQNSYKPY
notes: human AUF1/HNRNPD CDS encoding the 42 kDa protein (p42 isoform), amplified from SK-N-SH cDNA and cloned between KpnI and NotI of pENTR-GD; The co-IP was done in cells transfected with empty or AUF1-expressing plasmid; the anti-AUF1 blot also detects the endogenous AUF1 isoforms (p37, p40, p42, p45) of SK-N-SH cells; also called p42; source: SK-N-SH, transfected (AUF1-expressing plasmid), in lysate
- fold enrichment in the CNOT1 immunoprecipitate: 1.6 fold
